Results on 8 molecules are retold here after patent US20150197757, “OXYGEN-RESPONSIVE BACTERIAL GENE SWITCH” (Wisconsin Alumni Research Foundation, published 2015).

Data set [1] addresses T1, ArcA (chromosomal) (Escherichia coli, UniProt P0A9Q1 P0A9Q1:1-238).
T1 sequence: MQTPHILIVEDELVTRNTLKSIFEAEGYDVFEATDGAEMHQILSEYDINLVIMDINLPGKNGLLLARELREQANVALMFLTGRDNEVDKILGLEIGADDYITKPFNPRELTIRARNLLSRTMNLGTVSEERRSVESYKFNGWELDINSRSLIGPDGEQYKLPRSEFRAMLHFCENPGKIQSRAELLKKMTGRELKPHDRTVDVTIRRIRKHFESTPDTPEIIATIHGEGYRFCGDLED
The data set can be described thus: cell_activity; anaerobic lacZ fusion; repression largely relieved with O2. The procedure: (§1) Strains containing P1icdA-lacZ were grown in minimal media with 0.2% glucose. Fold repression was calculated by dividing the β-galactosidase activity of a ΔarcA strain (e.g., 803 Miller units for wt P1icdA-lacZ without O₂) by the activity of an arcA⁺ strain (e.g., 57 Miller units for wt P1icdA without O₂). The 10-bp DRs are indicated by open boxes with an X representing a DR element for which the repressive activity has been eliminated by mutation, and asterisks denoting DRs that have been mutated towards consensus (see FIG. 1C). (A) Effects of mutations away from consensus within each DR element, assayed under anaerobic conditions (—O₂). (B) The effect of mutations towards consensus within each DR element, assayed under anaerobic conditions. The dotted line represents anaerobic ArcA-dependent repression of wt P1icdA. (C) The effect of mutations towards consensus within each DR element, assayed under aerobic conditions. […]
(§2) β-galactosidase assays—All strains were grown in MOPS minimal medium (Neidhardt et al., 1974) with 0.2% glucose at 37° C. and sparged with a gas mix of 95% N₂ and 5% CO₂ (anaerobic) or 70% N₂, 5% CO₂, and 25% O₂ (aerobic). […] Standard errors for data plotted as ‘fold repression’ were calculated using a propagation of standard error formula (Ku, J. Res. National Bureau of Standards 70C:263-273 (1966)).

The target of data set [2] is T1, ArcA (chromosomal). The data set can be described thus: cell_activity; anaerobic. Here is the method:
P1icdA expression in the construct with a fourth DR element was about 18% higher in a ΔarcA background compared to the other strains tested (data not shown).
How ArcA binding to each DR element contributes to icdA repression was determined by measuring β-galactosidase activity produced from P1icdA-lacZ transcriptional fusions containing the GT-to-CA (5′-TGTTA-3′ to 5′-TCATA-3′) (SEQ ID NO:2; SEQ ID NO:4, respectively) mutations within each DR element under anaerobic conditions. […] P1izcdA was repressed 14-fold by ArcA (FIG. 3A). […]
β-galactosidase assays—All strains were grown in MOPS minimal medium (Neidhardt et al., 1974) with 0.2% glucose at 37° C. and sparged with a gas mix of 95% N₂ and 5% CO₂ (anaerobic) or 70% N₂, 5% CO₂, and 25% O₂ (aerobic). […] To terminate cell growth and any further protein synthesis, chloramphenicol (final concentration, 20 μg/ml) or tetracycline (final concentration, 10 μg/ml) was added, and cells were placed on ice until assayed for β-galactosidase activity (Miller J H (1972) Experiments in molecular genetics. [Cold Spring Harbor, N.Y.]: Cold Spring Harbor Laboratory). β-Galactosidase assays were repeated at least three times and fold repression was calculated by dividing the β-galactosidase activity of a ΔarcA strain by the activity of an arcA⁺ strain. […]

In data set [3] the target is T1, ArcA (chromosomal). Kind of data set: cell_activity; anaerobic; aerobic about 2.5-fold repression. Here is the method:
as §1, §2

Data set [4] deals with T2, ArcA-P (phosphorylated ArcA) (Escherichia coli, UniProt P0A9Q1 P0A9Q1:1-238).
T2 sequence: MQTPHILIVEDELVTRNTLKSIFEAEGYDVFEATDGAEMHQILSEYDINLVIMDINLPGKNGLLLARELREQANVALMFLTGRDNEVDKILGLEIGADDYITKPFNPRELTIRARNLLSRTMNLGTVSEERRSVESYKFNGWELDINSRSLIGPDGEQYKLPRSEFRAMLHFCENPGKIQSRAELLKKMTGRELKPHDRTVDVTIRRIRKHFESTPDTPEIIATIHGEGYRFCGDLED
The data set can be described thus: footprint; all four DRs protected; apparent affinity higher than wt; narrow range (<4-fold) of ArcA-P. Particulars: tags: His6 removed with TEV protease; phosphorylated with carbamyl phosphate; chain copies: 2 per two DR elements (inferred); label: 3' 32P (footprint). The procedure: To determine whether adding a fourth DR element facilitates ArcA-P binding and increases the footprint length, a consensus DR element (5′-TGTTA-3′) (SEQ ID NO:2) was added at the same spacing (11 by center-to-center) to either the 3′ or the 5′ end of the three-DR ArcA binding site within the icdA promoter region and DNase I footprinting experiments were performed.
DNase I footprinting: icdA promoter fragments were isolated from pPK9476, pPK9477, pPK9908, pPK9909, pPK9913, pPK9914, and pPK15001 after digestion with XhoI and BamHI. Sequenase Version 2.0 (USB Scientific) was used to 3′ radiolabel the BamHI end of the fragment with [α-³²P]-dGTP (PerkinElmer). Labeled DNA fragments were isolated from a non-denaturing 5% acrylamide gel and were subsequently purified with Elutip-d™ columns (Schleicher and Schuell). ArcA was phosphorylated by incubating with 50 mM disodium carbamyl phosphate (Sigma Aldrich) in 50 mM Tris, pH 7.9, 150 mM NaCl, and 10 mM MgCl₂ for 1 hour at 30° C. (Lynch & Lin, J. Bacteria 178:6238-6249 (1996)) and immediately used in the binding assays. Footprinting assays were performed by incubating phosphorylated ArcA with labeled DNA (˜5 nM) for 10 minutes at 30° C. in 40 mM Tris (pH 7.9), 30 mM KCl, 100 μg/ml BSA and 1 mM DTT followed by the addition of 2 μg/ml DNase I (Worthington) for 30 seconds.

Data set [5] concerns the target T1, ArcA (chromosomal). Kind of data set: cell_activity; aerobic; anaerobic repression similar to consensus DR3 alone. The procedure: as §1, §2
In data set [6] the target is T3, ArcA D54E (Escherichia coli, UniProt P0A9Q1 P0A9Q1:1-238, D54E).
T3 sequence: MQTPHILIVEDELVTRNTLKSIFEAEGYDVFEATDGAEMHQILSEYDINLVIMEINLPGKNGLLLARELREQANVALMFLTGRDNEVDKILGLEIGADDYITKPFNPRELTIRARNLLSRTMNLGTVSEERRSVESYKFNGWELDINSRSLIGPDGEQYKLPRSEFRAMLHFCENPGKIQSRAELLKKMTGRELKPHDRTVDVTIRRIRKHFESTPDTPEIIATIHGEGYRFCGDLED
Kind of data set: cell_activity; anaerobic; aerobic repression above wt ArcA. The text has this:
To test whether the enhanced repression of P₁idcdA with mutant ArcA binding sites is still dependent on phosphorylation, the aspartate residue at position 54 (site of phosphorylation) in the chromosomal copy of arcA was mutated to yield either alanine or glutamate, preventing phosphorylation from ArcB. The D54A variant reduced the repression of all P1icdA-lacZ constructs compared to that with the wt protein under both aerobic and anaerobic growth conditions (FIG. 5A). […] Thus, the elevated aerobic repression with the strengthened ArcA binding sites appears to result from increased occupancy of the small amount of ArcA-P likely present during aerobic conditions.
β-galactosidase assays—All strains were grown in MOPS minimal medium (Neidhardt et al., 1974) with 0.2% glucose at 37° C. and sparged with a gas mix of 95% N₂ and 5% CO₂ (anaerobic) or 70% N₂, 5% CO₂, and 25% O₂ (aerobic). Cells were harvested during mid-log growth (OD₆₀₀ of ˜0.3 on a Perkin Elmer Lambda 25 UV/Vis Spectrophotometer). […] Standard errors for data plotted as ‘fold repression’ were calculated using a propagation of standard error formula (Ku, J. Res. National Bureau of Standards 70C:263-273 (1966)).

The target in data set [7] is T1, ArcA (chromosomal). The data set can be described thus: cell_activity; anaerobic; aerobic 7-fold repression. Here is the method: as §1, §2
Data set [8] deals with T1, ArcA (chromosomal). The data set can be described thus: cell_activity; anaerobic. Here is the method: as §1, §2
The source holds these as a separate data set.

The target in data set [9] is T1, ArcA (chromosomal). The data set can be described thus: cell_activity; anaerobic; aerobic repression nearly the same, no longer O2 sensitive. Here is the method:
as §1, §2

B1: icdA P1 wt (dsDNA)
DNA 1: AGAGCAATTTTTTGTTAATGATTTGTAATTGGCTTGTCAATACTACCCTATTGT
DNA 2: ACAATAGGGTAGTATTGACAAGCCAATTACAAATCATTAACAAAAAATTGCTCT
With B1, the activity in data set [1] is 14 fold repression.

B2: icdA P1 DR3 GT->CA (dsDNA)
DNA 1: AGAGCAATTTTTTGTTAATGATTTGTAATTGGCTTCACAATACTACCCTATTGT
DNA 2: ACAATAGGGTAGTATTGTGAAGCCAATTACAAATCATTAACAAAAAATTGCTCT
As for B2, in data set [2], the activity was ~3.5 fold loss in repression vs wt.

B3: icdA P1 DR2 A->T (dsDNA)
DNA 1: AGAGCAATTTTTTGTTAATGATTTGTTATTGGCTTGTCAATACTACCCTATTGT
DNA 2: ACAATAGGGTAGTATTGACAAGCCAATAACAAATCATTAACAAAAAATTGCTCT
As for B3, in data set [3], the activity is 3 fold increase in repression vs wt.

B4: icdA P1 3' DR4 (dsDNA)
DNA 1: AGAGCAATTTTTTGTTAATGATTTGTAATTGGCTTGTCAATACTATGTTATTGT
DNA 2: ACAATAACATAGTATTGACAAGCCAATTACAAATCATTAACAAAAAATTGCTCT
Take B4: the binding result in data set [4] is on record as “binds”.

B5: icdA P1 DR2 A->T, DR3 C->T (dsDNA)
DNA 1: AGAGCAATTTTTTGTTAATGATTTGTTATTGGCTTGTTAATACTACCCTATTGT
DNA 2: ACAATAGGGTAGTATTAACAAGCCAATAACAAATCATTAACAAAAAATTGCTCT
B5 gave an activity in data set [5] of 21 fold repression.

B6: icdA P1 DR3 C->T (dsDNA)
DNA 1: AGAGCAATTTTTTGTTAATGATTTGTAATTGGCTTGTTAATACTACCCTATTGT
DNA 2: ACAATAGGGTAGTATTAACAAGCCAATTACAAATCATTAACAAAAAATTGCTCT
On to B6, for which the activity in data set [6] is 2 fold reduction in repression vs wt ArcA; in data set [7] it was 6 fold increase in repression vs wt.

B7: icdA P1 DR2 A->T, DR3 GT->CA (dsDNA)
DNA 1: AGAGCAATTTTTTGTTAATGATTTGTTATTGGCTTCACAATACTACCCTATTGT
DNA 2: ACAATAGGGTAGTATTGTGAAGCCAATAACAAATCATTAACAAAAAATTGCTCT
Consider B7, for which the activity in data set [8] is 3 fold reduction in repression vs DR2 A->T.

B8: icdA P1 5' DR4 (dsDNA)
DNA 1: ATGTTAATTTTTTGTTAATGATTTGTAATTGGCTTGTCAATACTACCCTATTGT
DNA 2: ACAATAGGGTAGTATTGACAAGCCAATTACAAATCATTAACAAAAAATTAACAT
Turning to B8, the activity in data set [9] was 8 fold increase in repression vs wt.
